Values quoted from earlier work in patent publication US20100298348A1, “Method of Decreasing Ubiquitylated Protein Levels” (priority 2009, published 2010).

B1: Uch-L1: ubiquitin hydrolase (protein, UniProt P09936 1-220, looked up)
Ubiquitin carboxyl-terminal …: MQLKPMEINPEMLNKVLSRLGVAGQWRFVDVLGLEEESLGSVPAPACALLLLFPLTAQHENFRKKQIEELKGQEVSPKVYFMKQTIGNSCGTIGLIHAVANNQDKLGFEDGSVLKQFLSETEKMSPEDRAKCFEKNEAIQAAHDAVAQEGQCRVDDKVNFHFILFNNVDGHLYELDGRMPFPVNHGASSEDTLLKDAAKVCREFTEREQGEVRFSAVALC

Key:
[1] = system: gamma secretase; conditions: in vivo; cited from earlier work
[2] = system: hippocampal slices; conditions: cited from earlier work
[3] = system: mouse model of AD; conditions: cited from earlier work

Row | Molecule | outcome of Phase III clinical trial [1] | Aβ-induced decrease in synaptic function [2] | learning and memory [3]
1 | C[C@@H](C(=O)O)c1ccc(-c2ccccc2)c(F)c1 [Flurizan] | failed | – | –
2 | B1 | – | reverses | improves
